According to patent US20200054723A1 (ALLAKOS, published 2020):
Where “and” joins values, the source holds several entries; their conditions need not be identical. Equal entries are not always repeated.

B1: HDKF (antibody, human IgG1, V domains shown)
VH: EVQLVESGGGLVQPGGSLRLSCAASGFSLTIYGAHWVRQAPGKGLEWLSVIWAGGSTNYNSALMSRFTISKDNSKNTVYLQMNSLRAEDTAVYYCARDGSSPYYYSMEYWGQGTTVTVSS
VL: EIVLTQSPATLSLSPGERATLSCSATSSVSYMHWFQQKPGQAPRLLIYSTSNLASGIPARFSGSGSGTDYTLTISSLEPEDFAVYYCQQRSSYPFTFGPGTKLDIK
notes: human IgG1/kappa
B2: HFKD (antibody, human IgG1, V domains shown)
VH: EVQLVESGGGLVQPGGSLRLSCAASGFSLTIYGAHWVRQAPGKGLEWVSVIWAGGSTNYNSALMSRLTISKDNSKNTVYLQMNSLRAEDTAVYYCARDGSSPYYYSMEYWGQGTTVTVSS
VL: EIVLTQSPATLSLSPGERATLSCSATSSVSYMHWFQQKPGQAPRLWIYSTSNLASGIPARFSGSGSGTDFTLTISSLEPEDFAVYYCQQRSSYPFTFGPGTKLDIK
notes: human IgG1/kappa
B3: HGKB (antibody, human IgG1, V domains shown)
VH: EVQLVESGGGLVQPGGSLRLSCAASGFSLTIYGAHWVRQAPGKGLEWVSVIWAGGSTNYNSALMSRFSISKDNSKNTVYLQMNSLRAEDTAVYYCARDGSSPYYYSMEYWGQGTTVTVSS
VL: EIILTQSPATLSLSPGERATLSCSATSSVSYMHWFQQKPGQAPRLWIYSTSNLASGVPARFSGSGSGTDYTLTISSLEPEDFAVYYCQQRSSYPFTFGPGTKLDIK
notes: human IgG1/kappa
B4: HFKE (antibody, human IgG1, V domains shown)
VH: EVQLVESGGGLVQPGGSLRLSCAASGFSLTIYGAHWVRQAPGKGLEWVSVIWAGGSTNYNSALMSRLTISKDNSKNTVYLQMNSLRAEDTAVYYCARDGSSPYYYSMEYWGQGTTVTVSS
VL: EIVLTQSPATLSLSPGERATLSCSATSSVSYMHWFQQKPGQAPRLLIYSTSNLASGVPARFSGSGSGTDFTLTISSLEPEDFAVYYCQQRSSYPFTFGPGTKLDIK
notes: human IgG1/kappa
B5: HDKFmut (antibody, human IgG1, V domains shown)
VH: EVQLVESGGGLVQPGGSLRLSCAASGFSLTIYGAHWVRQAPGKGLEWLSVIWAGGSTNYNSALMSRFTISKDNSKNTVYLQMNSLRAEDTAVYYCARDGSSPYYYSMEYWGQGTTVTVSS
VL: EIVLTQSPATLSLSPGERATLSCSATSSVSYMHWFQQKPGQAPRLLIYSTSNLASGIPARFSGSGSGTDYTLTISSLEPEDFAVYYCQQRSSYPYTFGPGTKLDIK
notes: human IgG1/kappa
B6: HEKB (antibody, human IgG1, V domains shown)
VH: EVQLVESGGGLVQPGGSLRLSCAASGFSLTIYGAHWVRQAPGKGLEWVGVIWAGGSTNYNSALMSRFTISKDNSKNTVYLQMNSLRAEDTAVYYCARDGSSPYYYSMEYWGQGTTVTVSS
VL: EIILTQSPATLSLSPGERATLSCSATSSVSYMHWFQQKPGQAPRLWIYSTSNLASGVPARFSGSGSGTDYTLTISSLEPEDFAVYYCQQRSSYPFTFGPGTKLDIK
notes: human IgG1/kappa
B7: HFKG (antibody, human IgG1, V domains shown)
VH: EVQLVESGGGLVQPGGSLRLSCAASGFSLTIYGAHWVRQAPGKGLEWVSVIWAGGSTNYNSALMSRLTISKDNSKNTVYLQMNSLRAEDTAVYYCARDGSSPYYYSMEYWGQGTTVTVSS
VL: EIVLTQSPATLSLSPGERATLSCSATSSVSYMHWYQQKPGQAPRLLIYSTSNLASGIPARFSGSGSGTDFTLTISSLEPEDFAVYYCQQRSSYPFTFGPGTKLDIK
notes: human IgG1/kappa
B8: HFKFmut (antibody, human IgG1, V domains shown)
VH: EVQLVESGGGLVQPGGSLRLSCAASGFSLTIYGAHWVRQAPGKGLEWVSVIWAGGSTNYNSALMSRLTISKDNSKNTVYLQMNSLRAEDTAVYYCARDGSSPYYYSMEYWGQGTTVTVSS
VL: EIVLTQSPATLSLSPGERATLSCSATSSVSYMHWFQQKPGQAPRLLIYSTSNLASGIPARFSGSGSGTDYTLTISSLEPEDFAVYYCQQRSSYPYTFGPGTKLDIK
notes: human IgG1/kappa
B9: HDKG (antibody, human IgG1, V domains shown)
VH: EVQLVESGGGLVQPGGSLRLSCAASGFSLTIYGAHWVRQAPGKGLEWLSVIWAGGSTNYNSALMSRFTISKDNSKNTVYLQMNSLRAEDTAVYYCARDGSSPYYYSMEYWGQGTTVTVSS
VL: EIVLTQSPATLSLSPGERATLSCSATSSVSYMHWYQQKPGQAPRLLIYSTSNLASGIPARFSGSGSGTDFTLTISSLEPEDFAVYYCQQRSSYPFTFGPGTKLDIK
notes: human IgG1/kappa
B10: HFKC (antibody, human IgG1, V domains shown)
VH: EVQLVESGGGLVQPGGSLRLSCAASGFSLTIYGAHWVRQAPGKGLEWVSVIWAGGSTNYNSALMSRLTISKDNSKNTVYLQMNSLRAEDTAVYYCARDGSSPYYYSMEYWGQGTTVTVSS
VL: EIILTQSPATLSLSPGERATLSCSATSSVSYMHWFQQKPGQAPRLLIYSTSNLASGIPARFSGSGSGTDFTLTISSLEPEDFAVYYCQQRSSYPFTFGPGTKLDIK
notes: human IgG1/kappa
B11: HFKB (antibody, human IgG1, V domains shown)
VH: EVQLVESGGGLVQPGGSLRLSCAASGFSLTIYGAHWVRQAPGKGLEWVSVIWAGGSTNYNSALMSRLTISKDNSKNTVYLQMNSLRAEDTAVYYCARDGSSPYYYSMEYWGQGTTVTVSS
VL: EIILTQSPATLSLSPGERATLSCSATSSVSYMHWFQQKPGQAPRLWIYSTSNLASGVPARFSGSGSGTDYTLTISSLEPEDFAVYYCQQRSSYPFTFGPGTKLDIK
notes: human IgG1/kappa
B12: HFKF (antibody, human IgG1, V domains shown)
VH: EVQLVESGGGLVQPGGSLRLSCAASGFSLTIYGAHWVRQAPGKGLEWVSVIWAGGSTNYNSALMSRLTISKDNSKNTVYLQMNSLRAEDTAVYYCARDGSSPYYYSMEYWGQGTTVTVSS
VL: EIVLTQSPATLSLSPGERATLSCSATSSVSYMHWFQQKPGQAPRLLIYSTSNLASGIPARFSGSGSGTDYTLTISSLEPEDFAVYYCQQRSSYPFTFGPGTKLDIK
notes: human IgG1/kappa
B13: HEKG (antibody, human IgG1, V domains shown)
VH: EVQLVESGGGLVQPGGSLRLSCAASGFSLTIYGAHWVRQAPGKGLEWVGVIWAGGSTNYNSALMSRFTISKDNSKNTVYLQMNSLRAEDTAVYYCARDGSSPYYYSMEYWGQGTTVTVSS
VL: EIVLTQSPATLSLSPGERATLSCSATSSVSYMHWYQQKPGQAPRLLIYSTSNLASGIPARFSGSGSGTDFTLTISSLEPEDFAVYYCQQRSSYPFTFGPGTKLDIK
notes: human IgG1/kappa
B14: HEKC (antibody, human IgG1, V domains shown)
VH: EVQLVESGGGLVQPGGSLRLSCAASGFSLTIYGAHWVRQAPGKGLEWVGVIWAGGSTNYNSALMSRFTISKDNSKNTVYLQMNSLRAEDTAVYYCARDGSSPYYYSMEYWGQGTTVTVSS
VL: EIILTQSPATLSLSPGERATLSCSATSSVSYMHWFQQKPGQAPRLLIYSTSNLASGIPARFSGSGSGTDFTLTISSLEPEDFAVYYCQQRSSYPFTFGPGTKLDIK
notes: human IgG1/kappa
B15: HEKD (antibody, human IgG1, V domains shown)
VH: EVQLVESGGGLVQPGGSLRLSCAASGFSLTIYGAHWVRQAPGKGLEWVGVIWAGGSTNYNSALMSRFTISKDNSKNTVYLQMNSLRAEDTAVYYCARDGSSPYYYSMEYWGQGTTVTVSS
VL: EIVLTQSPATLSLSPGERATLSCSATSSVSYMHWFQQKPGQAPRLWIYSTSNLASGIPARFSGSGSGTDFTLTISSLEPEDFAVYYCQQRSSYPFTFGPGTKLDIK
notes: human IgG1/kappa
B16: HGKD (antibody, human IgG1, V domains shown)
VH: EVQLVESGGGLVQPGGSLRLSCAASGFSLTIYGAHWVRQAPGKGLEWVSVIWAGGSTNYNSALMSRFSISKDNSKNTVYLQMNSLRAEDTAVYYCARDGSSPYYYSMEYWGQGTTVTVSS
VL: EIVLTQSPATLSLSPGERATLSCSATSSVSYMHWFQQKPGQAPRLWIYSTSNLASGIPARFSGSGSGTDFTLTISSLEPEDFAVYYCQQRSSYPFTFGPGTKLDIK
notes: human IgG1/kappa
B17: HGKA (antibody, human IgG1, V domains shown)
VH: EVQLVESGGGLVQPGGSLRLSCAASGFSLTIYGAHWVRQAPGKGLEWVSVIWAGGSTNYNSALMSRFSISKDNSKNTVYLQMNSLRAEDTAVYYCARDGSSPYYYSMEYWGQGTTVTVSS
VL: EIVLTQSPATLSLSPGERATLSCSATSSVSYMHWFQQKPGQAPRLLIYSTSNLASGIPARFSGSGSGTDFTLTISSLEPEDFAVYYCQQRSSYPFTFGPGTKLDIK
notes: human IgG1/kappa
B18: HGKC (antibody, human IgG1, V domains shown)
VH: EVQLVESGGGLVQPGGSLRLSCAASGFSLTIYGAHWVRQAPGKGLEWVSVIWAGGSTNYNSALMSRFSISKDNSKNTVYLQMNSLRAEDTAVYYCARDGSSPYYYSMEYWGQGTTVTVSS
VL: EIILTQSPATLSLSPGERATLSCSATSSVSYMHWFQQKPGQAPRLLIYSTSNLASGIPARFSGSGSGTDFTLTISSLEPEDFAVYYCQQRSSYPFTFGPGTKLDIK
notes: human IgG1/kappa
B19: HGKE (antibody, human IgG1, V domains shown)
VH: EVQLVESGGGLVQPGGSLRLSCAASGFSLTIYGAHWVRQAPGKGLEWVSVIWAGGSTNYNSALMSRFSISKDNSKNTVYLQMNSLRAEDTAVYYCARDGSSPYYYSMEYWGQGTTVTVSS
VL: EIVLTQSPATLSLSPGERATLSCSATSSVSYMHWFQQKPGQAPRLLIYSTSNLASGVPARFSGSGSGTDFTLTISSLEPEDFAVYYCQQRSSYPFTFGPGTKLDIK
notes: human IgG1/kappa
B20: HFKA (antibody, human IgG1, V domains shown)
VH: EVQLVESGGGLVQPGGSLRLSCAASGFSLTIYGAHWVRQAPGKGLEWVSVIWAGGSTNYNSALMSRLTISKDNSKNTVYLQMNSLRAEDTAVYYCARDGSSPYYYSMEYWGQGTTVTVSS
VL: EIVLTQSPATLSLSPGERATLSCSATSSVSYMHWFQQKPGQAPRLLIYSTSNLASGIPARFSGSGSGTDFTLTISSLEPEDFAVYYCQQRSSYPFTFGPGTKLDIK
notes: human IgG1/kappa

Molecular target: T1, recombinant human Siglec-8 extracellular domain (ECD) (human, UniProt Q9NYZ4 17-363)
T1 construct: extracellular domain; also called Siglec-8 ECD; full Siglec-8 ECD
T1 sequence (Q9NYZ4 17-363): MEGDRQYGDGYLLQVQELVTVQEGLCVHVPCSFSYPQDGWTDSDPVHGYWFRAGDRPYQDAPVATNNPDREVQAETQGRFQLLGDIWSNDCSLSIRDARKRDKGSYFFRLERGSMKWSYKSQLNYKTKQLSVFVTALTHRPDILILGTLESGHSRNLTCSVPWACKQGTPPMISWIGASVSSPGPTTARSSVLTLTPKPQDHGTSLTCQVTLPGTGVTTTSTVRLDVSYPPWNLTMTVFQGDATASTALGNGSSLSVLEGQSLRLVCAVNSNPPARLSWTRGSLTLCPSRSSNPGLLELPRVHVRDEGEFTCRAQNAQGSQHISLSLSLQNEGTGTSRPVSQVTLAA
Assay: ELISA, coated Siglec-8 ECD
Procedure: Binding of recombinant human Siglec-8 extracellular domain (ECD) by chimeric 2E2 and chimeric 2C4 IgG1K antibodies was measured by ELISA. […] Three-fold serial dilutions of a chimeric antibody (ch2E2 or ch2C4) or mouse antibody (m2E2 or m2C4) in 0.2% BSA/TBS (starting concentration was 5000 ng/mL) was added to each coated well. The plate was incubated for 2 hours at room temperature and the wells were subsequently washed before addition of goat-anti-human Fc peroxidase conjugate (1:10000 dilution) or anti-mouse Fc peroxidase conjugate (1:30000 dilution) diluted in 0.2% BSA/TBS solution. The plate was incubated for 45 minutes at room temperature, followed by washing and addition of 30 μL K-blue HRP substrate (SkyBio Ltd) to each well. After incubation at room temperature for 15 minutes, the reaction was stopped by adding 10 μL of Red Stop solution (SkyBio Ltd) to each well. The optical density or the experimental samples was read at 650 nm using the ELISA reader PHERAStar FS (BMG Labtech).
The fully humanized antibody heavy and light chains were combined and compared with the chimeric antibody to determine if replacing the 4 Å and canonical framework residues and interface residues was sufficient to successfully humanize 2E2. Expi293 cells were co-transfected with combinations of different humanized light chain vectors in association with different humanized heavy chain vectors. Siglec-8 antigen was used to measure antibody binding by ELISA as described in Example 1.

Row | Binder | EC50
1 | B1 | 0.057 nM
2 | B2 | 0.058 nM
3 | B3 | 0.134 nM
4 | B4 | 0.104 nM
5 | B5 | 0.056 nM
6 | B6 | 0.063 nM and 0.057 nM
7 | B7 | 0.355 nM
8 | B8 | 0.057 nM
9 | B9 | 0.113 nM
10 | B10 | 0.063 nM
11 | B11 | 0.099 nM
12 | B12 | 0.118 nM
13 | B13 | 0.302 nM
14 | B14 | 0.069 nM and 0.065 nM
15 | B15 | 0.059 nM and 0.07 nM
16 | B16 | 0.047 nM
17 | B17 | 0.061 nM
18 | B18 | 0.065 nM
19 | B19 | 0.116 nM
20 | B20 | 0.106 nM
